Patent publication US20150344570A1 (published 2015)

T1: FcγRIIb extracellular domain with C-terminal His tag (human, UniProt P31994 43-217)
T1 construct: extracellular domain; soluble analyte in Biacore; also called FcgRIIb; not shown: His tag at the C terminus
T1 sequence (looked up): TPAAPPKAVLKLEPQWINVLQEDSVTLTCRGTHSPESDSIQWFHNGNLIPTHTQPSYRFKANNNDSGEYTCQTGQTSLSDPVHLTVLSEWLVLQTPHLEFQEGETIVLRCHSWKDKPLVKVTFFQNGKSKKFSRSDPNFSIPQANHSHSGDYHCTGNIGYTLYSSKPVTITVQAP


What was measured:
[1] = biological target: T2, FcγRIa extracellular domain with C-terminal His tag (human, UniProt P12314 16-292); test: SPR, binding relative to GpH7-A5/GpH7-B3/GpL16-k0 = 100
T2 construct: extracellular domain; soluble analyte in Biacore; also called FcgRI; not shown: His tag at the C terminus
T2 sequence (P12314 16-292): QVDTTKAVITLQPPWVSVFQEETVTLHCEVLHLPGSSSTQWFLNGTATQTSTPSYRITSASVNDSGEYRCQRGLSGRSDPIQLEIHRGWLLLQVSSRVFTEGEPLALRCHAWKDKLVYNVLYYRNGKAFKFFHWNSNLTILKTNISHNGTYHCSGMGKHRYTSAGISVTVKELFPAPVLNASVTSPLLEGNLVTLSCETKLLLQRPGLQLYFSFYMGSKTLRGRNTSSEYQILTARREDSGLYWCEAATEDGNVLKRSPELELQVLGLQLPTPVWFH

[2] = biological target: T1, FcγRIIb extracellular domain with …; test: as above
[3] = biological target: T2, FcγRIa extracellular domain with …; test: SPR; He/Con_1a divided by He/Con_2b (FcγRIa against FcγRIIb)
Protocol: The heterodimerized antibodies He Abs in which one of the H chains was introduced with an alteration were assayed for their binding activities to each activating FcγR and inhibitory FcγR according to the method described in Example 4. […] The activating FcγRs in FIGS. 26, 27, 28, and 29 are FcγRIa, FcγRIIa (R), FcγRIIa (H), and FcγRIIIa, respectively.
Analysis of interaction between objective antibody and the FcγR was carried out using Biacore T100 (GE Healthcare). HBS-EP+ (GE Healthcare) was used as the running buffer, and the measurement temperature was set to 25° C. Chips produced by immobilizing the antigen peptide by the amine coupling method to a Series S Sencor Chip CM5 (GE Healthcare), or alternatively, chips produced by allowing preliminarily biotinylated antigen peptides to interact with and immobilize onto a Series S Sensor Chip SA (certified) (GE Healthcare) were used. Antibodies of interest were captured onto an antigen peptide-immobilized chip, and allowed to interact to each FcγR diluted with running buffer. To regenerate and repeatedly use the chip, the antibodies captured on the chip were washed off by reacting 10 mM glycine-HCl, pH 1.5.

Row | Binder | He/Con_1a [1] | He/Con_2b [2] | He_1a/2b (Ia/IIb) [3]
1 | GpH7-A5/GpH7-B3 variant D270_11K/GpL16-k0 (antibody, human IgG1, kappa, change in the GpH7-B3 H chain only; also called He Ab) heavy 1: not shown heavy 2: not shown light: DIVMTQSPLSLPVTPGEPASISCQASESLVHSNRNTYLHWYLQKPGQSPQLLIYKVSNRFSGVPDRFSGSGSGTDFTLKISRVEAEDVGVYYCSQNTHVPPTFGQGTKVEIERTVAAPSVFIFPPSDEQLKSGTASVVCLLNNFYPREAKVQWKVDNALQSGNSQESVTEQDSKDSTYSLSSTLTLSKADYEKHKVYACEVTHQGLSSPVTKSFNRGEC | 58.4 % of control | 20.3 % of control | 2.88 ratio
2 | GpH7-A5/GpH7-B3 variant D270_13S/GpL16-k0 (antibody, human IgG1, kappa, change in the GpH7-B3 H chain only; also called He Ab) heavy 1: not shown heavy 2: not shown light: DIVMTQSPLSLPVTPGEPASISCQASESLVHSNRNTYLHWYLQKPGQSPQLLIYKVSNRFSGVPDRFSGSGSGTDFTLKISRVEAEDVGVYYCSQNTHVPPTFGQGTKVEIERTVAAPSVFIFPPSDEQLKSGTASVVCLLNNFYPREAKVQWKVDNALQSGNSQESVTEQDSKDSTYSLSSTLTLSKADYEKHKVYACEVTHQGLSSPVTKSFNRGEC | 75.3 % of control | 44.2 % of control | 1.7 ratio
3 | GpH7-A5/GpH7-B3 variant D270_14T/GpL16-k0 (antibody, human IgG1, kappa, change in the GpH7-B3 H chain only; also called He Ab) heavy 1: not shown heavy 2: not shown light: DIVMTQSPLSLPVTPGEPASISCQASESLVHSNRNTYLHWYLQKPGQSPQLLIYKVSNRFSGVPDRFSGSGSGTDFTLKISRVEAEDVGVYYCSQNTHVPPTFGQGTKVEIERTVAAPSVFIFPPSDEQLKSGTASVVCLLNNFYPREAKVQWKVDNALQSGNSQESVTEQDSKDSTYSLSSTLTLSKADYEKHKVYACEVTHQGLSSPVTKSFNRGEC | 70.6 % of control | 57.8 % of control | 1.22 ratio
4 | GpH7-A5/GpH7-B3 variant D270_18N/GpL16-k0 (antibody, human IgG1, kappa, change in the GpH7-B3 H chain only; also called He Ab) heavy 1: not shown heavy 2: not shown light: DIVMTQSPLSLPVTPGEPASISCQASESLVHSNRNTYLHWYLQKPGQSPQLLIYKVSNRFSGVPDRFSGSGSGTDFTLKISRVEAEDVGVYYCSQNTHVPPTFGQGTKVEIERTVAAPSVFIFPPSDEQLKSGTASVVCLLNNFYPREAKVQWKVDNALQSGNSQESVTEQDSKDSTYSLSSTLTLSKADYEKHKVYACEVTHQGLSSPVTKSFNRGEC | 67.8 % of control | 40.3 % of control | 1.68 ratio
5 | GpH7-A5/GpH7-B3 variant D270_12R/GpL16-k0 (antibody, human IgG1, kappa, change in the GpH7-B3 H chain only; also called He Ab) heavy 1: not shown heavy 2: not shown light: DIVMTQSPLSLPVTPGEPASISCQASESLVHSNRNTYLHWYLQKPGQSPQLLIYKVSNRFSGVPDRFSGSGSGTDFTLKISRVEAEDVGVYYCSQNTHVPPTFGQGTKVEIERTVAAPSVFIFPPSDEQLKSGTASVVCLLNNFYPREAKVQWKVDNALQSGNSQESVTEQDSKDSTYSLSSTLTLSKADYEKHKVYACEVTHQGLSSPVTKSFNRGEC | 66.3 % of control | 18.3 % of control | 3.63 ratio
6 | GpH7-A5/GpH7-B3 variant E269_20W/GpL16-k0 (antibody, human IgG1, kappa, change in the GpH7-B3 H chain only; also called He Ab) heavy 1: not shown heavy 2: not shown light: DIVMTQSPLSLPVTPGEPASISCQASESLVHSNRNTYLHWYLQKPGQSPQLLIYKVSNRFSGVPDRFSGSGSGTDFTLKISRVEAEDVGVYYCSQNTHVPPTFGQGTKVEIERTVAAPSVFIFPPSDEQLKSGTASVVCLLNNFYPREAKVQWKVDNALQSGNSQESVTEQDSKDSTYSLSSTLTLSKADYEKHKVYACEVTHQGLSSPVTKSFNRGEC | 105 % of control | 42.5 % of control | 2.47 ratio
7 | GpH7-A5/GpH7-B3 variant D270_19Q/GpL16-k0 (antibody, human IgG1, kappa, change in the GpH7-B3 H chain only; also called He Ab) heavy 1: not shown heavy 2: not shown light: DIVMTQSPLSLPVTPGEPASISCQASESLVHSNRNTYLHWYLQKPGQSPQLLIYKVSNRFSGVPDRFSGSGSGTDFTLKISRVEAEDVGVYYCSQNTHVPPTFGQGTKVEIERTVAAPSVFIFPPSDEQLKSGTASVVCLLNNFYPREAKVQWKVDNALQSGNSQESVTEQDSKDSTYSLSSTLTLSKADYEKHKVYACEVTHQGLSSPVTKSFNRGEC | 78.2 % of control | 48 % of control | 1.63 ratio
8 | GpH7-A5/GpH7-B3 variant D270_16H/GpL16-k0 (antibody, human IgG1, kappa, change in the GpH7-B3 H chain only; also called He Ab) heavy 1: not shown heavy 2: not shown light: DIVMTQSPLSLPVTPGEPASISCQASESLVHSNRNTYLHWYLQKPGQSPQLLIYKVSNRFSGVPDRFSGSGSGTDFTLKISRVEAEDVGVYYCSQNTHVPPTFGQGTKVEIERTVAAPSVFIFPPSDEQLKSGTASVVCLLNNFYPREAKVQWKVDNALQSGNSQESVTEQDSKDSTYSLSSTLTLSKADYEKHKVYACEVTHQGLSSPVTKSFNRGEC | 66 % of control | 47.2 % of control | 1.4 ratio
9 | GpH7-A5/GpH7-B3 variant E269_19Q/GpL16-k0 (antibody, human IgG1, kappa, change in the GpH7-B3 H chain only; also called He Ab) heavy 1: not shown heavy 2: not shown light: DIVMTQSPLSLPVTPGEPASISCQASESLVHSNRNTYLHWYLQKPGQSPQLLIYKVSNRFSGVPDRFSGSGSGTDFTLKISRVEAEDVGVYYCSQNTHVPPTFGQGTKVEIERTVAAPSVFIFPPSDEQLKSGTASVVCLLNNFYPREAKVQWKVDNALQSGNSQESVTEQDSKDSTYSLSSTLTLSKADYEKHKVYACEVTHQGLSSPVTKSFNRGEC | 105 % of control | 44.3 % of control | 2.37 ratio
10 | GpH7-A5/GpH7-B3 variant D270_15Y/GpL16-k0 (antibody, human IgG1, kappa, change in the GpH7-B3 H chain only; also called He Ab) heavy 1: not shown heavy 2: not shown light: DIVMTQSPLSLPVTPGEPASISCQASESLVHSNRNTYLHWYLQKPGQSPQLLIYKVSNRFSGVPDRFSGSGSGTDFTLKISRVEAEDVGVYYCSQNTHVPPTFGQGTKVEIERTVAAPSVFIFPPSDEQLKSGTASVVCLLNNFYPREAKVQWKVDNALQSGNSQESVTEQDSKDSTYSLSSTLTLSKADYEKHKVYACEVTHQGLSSPVTKSFNRGEC | 68.5 % of control | 44.9 % of control | 1.53 ratio

Further lines, results first:

Row | He/Con_1a [1] | He/Con_2b [2] | He_1a/2b (Ia/IIb) [3] | Binder
11 | 102 % of control | 76.8 % of control | 1.33 ratio | GpH7-A5/GpH7-B3 variant P271_07I/GpL16-k0 (antibody, human IgG1, kappa, change in the GpH7-B3 H chain only; also called He Ab) heavy 1: not shown heavy 2: not shown light: DIVMTQSPLSLPVTPGEPASISCQASESLVHSNRNTYLHWYLQKPGQSPQLLIYKVSNRFSGVPDRFSGSGSGTDFTLKISRVEAEDVGVYYCSQNTHVPPTFGQGTKVEIERTVAAPSVFIFPPSDEQLKSGTASVVCLLNNFYPREAKVQWKVDNALQSGNSQESVTEQDSKDSTYSLSSTLTLSKADYEKHKVYACEVTHQGLSSPVTKSFNRGEC
12 | 102 % of control | 74.8 % of control | 1.37 ratio | GpH7-A5/GpH7-B3 variant P271_03V/GpL16-k0 (antibody, human IgG1, kappa, change in the GpH7-B3 H chain only; also called He Ab) heavy 1: not shown heavy 2: not shown light: DIVMTQSPLSLPVTPGEPASISCQASESLVHSNRNTYLHWYLQKPGQSPQLLIYKVSNRFSGVPDRFSGSGSGTDFTLKISRVEAEDVGVYYCSQNTHVPPTFGQGTKVEIERTVAAPSVFIFPPSDEQLKSGTASVVCLLNNFYPREAKVQWKVDNALQSGNSQESVTEQDSKDSTYSLSSTLTLSKADYEKHKVYACEVTHQGLSSPVTKSFNRGEC
13 | 102 % of control | 77.5 % of control | 1.32 ratio | GpH7-A5/GpH7-B3 variant P271_06M/GpL16-k0 (antibody, human IgG1, kappa, change in the GpH7-B3 H chain only; also called He Ab) heavy 1: not shown heavy 2: not shown light: DIVMTQSPLSLPVTPGEPASISCQASESLVHSNRNTYLHWYLQKPGQSPQLLIYKVSNRFSGVPDRFSGSGSGTDFTLKISRVEAEDVGVYYCSQNTHVPPTFGQGTKVEIERTVAAPSVFIFPPSDEQLKSGTASVVCLLNNFYPREAKVQWKVDNALQSGNSQESVTEQDSKDSTYSLSSTLTLSKADYEKHKVYACEVTHQGLSSPVTKSFNRGEC
14 | 102 % of control | 67.9 % of control | 1.5 ratio | GpH7-A5/GpH7-B3 variant P271_16H/GpL16-k0 (antibody, human IgG1, kappa, change in the GpH7-B3 H chain only; also called He Ab) heavy 1: not shown heavy 2: not shown light: DIVMTQSPLSLPVTPGEPASISCQASESLVHSNRNTYLHWYLQKPGQSPQLLIYKVSNRFSGVPDRFSGSGSGTDFTLKISRVEAEDVGVYYCSQNTHVPPTFGQGTKVEIERTVAAPSVFIFPPSDEQLKSGTASVVCLLNNFYPREAKVQWKVDNALQSGNSQESVTEQDSKDSTYSLSSTLTLSKADYEKHKVYACEVTHQGLSSPVTKSFNRGEC
15 | 103 % of control | 52.3 % of control | 1.97 ratio | GpH7-A5/GpH7-B3 variant P271_15Y/GpL16-k0 (antibody, human IgG1, kappa, change in the GpH7-B3 H chain only; also called He Ab) heavy 1: not shown heavy 2: not shown light: DIVMTQSPLSLPVTPGEPASISCQASESLVHSNRNTYLHWYLQKPGQSPQLLIYKVSNRFSGVPDRFSGSGSGTDFTLKISRVEAEDVGVYYCSQNTHVPPTFGQGTKVEIERTVAAPSVFIFPPSDEQLKSGTASVVCLLNNFYPREAKVQWKVDNALQSGNSQESVTEQDSKDSTYSLSSTLTLSKADYEKHKVYACEVTHQGLSSPVTKSFNRGEC
16 | 102 % of control | 59.5 % of control | 1.71 ratio | GpH7-A5/GpH7-B3 variant P271_04F/GpL16-k0 (antibody, human IgG1, kappa, change in the GpH7-B3 H chain only; also called He Ab) heavy 1: not shown heavy 2: not shown light: DIVMTQSPLSLPVTPGEPASISCQASESLVHSNRNTYLHWYLQKPGQSPQLLIYKVSNRFSGVPDRFSGSGSGTDFTLKISRVEAEDVGVYYCSQNTHVPPTFGQGTKVEIERTVAAPSVFIFPPSDEQLKSGTASVVCLLNNFYPREAKVQWKVDNALQSGNSQESVTEQDSKDSTYSLSSTLTLSKADYEKHKVYACEVTHQGLSSPVTKSFNRGEC
17 | 103 % of control | 58.1 % of control | 1.77 ratio | GpH7-A5/GpH7-B3 variant P271_20W/GpL16-k0 (antibody, human IgG1, kappa, change in the GpH7-B3 H chain only; also called He Ab) heavy 1: not shown heavy 2: not shown light: DIVMTQSPLSLPVTPGEPASISCQASESLVHSNRNTYLHWYLQKPGQSPQLLIYKVSNRFSGVPDRFSGSGSGTDFTLKISRVEAEDVGVYYCSQNTHVPPTFGQGTKVEIERTVAAPSVFIFPPSDEQLKSGTASVVCLLNNFYPREAKVQWKVDNALQSGNSQESVTEQDSKDSTYSLSSTLTLSKADYEKHKVYACEVTHQGLSSPVTKSFNRGEC
